# Data from patent EP4729537A1 (Universitat Politècnica de València, dated 2024).
# B1: β-lactamase inhibitor B6 antibody (VHH)
# VHH: QVQLQESGGGLVQAGGSLRLSCAASGTISAVSGMGWYRQAPGKEREFVASINRGSTTNYADSVKGRFTISRDNAKNTVYLQMNSLKPEDTAVYYCAALHGTGRVHVYWGQGTQVTVSS
# notes: sdAb from a synthetic naive yeast display library; expressed from pET26b in the E. coli periplasm and purified by chromatography; also called sdAb B6
# B2: β-lactamase inhibitor B5 antibody (VHH)
# VHH: QVQLQESGGGLVQAGGSLRLSCAASGNISDLGTMGWYRQAPGKEREFVAGIGTGSNTYYADSVKGRFTISRDNAKNTVYLQMNSLKPEDTAVYYCAVIAGRSYWIYFYYWGQGTQVTVSS
# notes: sdAb from a synthetic naive yeast display library; expressed from pET26b in the E. coli periplasm and purified by chromatography; also called sdAb B5
# B3: β-lactamase inhibitor B2 antibody (VHH)
# VHH: QVQLQESGGGLVQAGGSLRLSCAASGTIFVYPYMGWYRQAPGKEREFVAGIGQGATTYYADSVKGRFTISRDNAKNTVYLQMNSLKPEDTAVYYCAAYRYRDDVRRYGIDRYHTYWGQGTQVTVSS
# notes: sdAb from a synthetic naive yeast display library; expressed from pET26b in the E. coli periplasm and purified by chromatography; also called sdAb B2
# B4: single domain antibody B1 (VHH)
# VHH: QVQLQESGGGLVQAGGSLRLSCAASGNIFTVSSMGWYRQAPGKEREFVAAISDGATTNYADSVKGRFTISRDNAKNTVYLQMNSLKPEDTAVYYCAAYASRVGLTVYWGQGTQVTVSS
# notes: sdAb from a synthetic naive yeast display library; expressed from pET26b in the E. coli periplasm and purified by chromatography; also called sdAb B1
# B5: β-lactamase inhibitor B4 antibody (VHH)
# VHH: QVQLQESGGGLVQAGGSLRLSCAASGTIFAQDYMGWYRQAPGKEREFVASIAYGTITYYADSVKGRFTISRDNAKNTVYLQMNSLKPEDTAVYYCAVYPTPVTDYIYWGQGTQVTVSS
# notes: sdAb from a synthetic naive yeast display library; expressed from pET26b in the E. coli periplasm and purified by chromatography; also called sdAb B4
# B6: β-lactamase inhibitor B3 antibody (VHH)
# VHH: QVQLQESGGGLVQAGGSLRLSCAASGTIFYYPYMGWYRQAPGKEREFVAGIDYGSTTYYADSVKGRFTISRDNAKNTVYLQMNSLKPEDTAVYYCAVVYLVTRKGASQQDEIYSYWGQGTQVTVSS
# notes: sdAb from a synthetic naive yeast display library; expressed from pET26b in the E. coli periplasm and purified by chromatography; also called sdAb B3
# Legend:
# [1] = target: T1, antigenic protein: class A β-lactamase fragment of Mycobacterium abscessus (Blamab gene) with C-terminal TEV … (Mycobacterium abscessus); assay: nitrocefin hydrolysis assay with purified enzyme, Lineweaver-Burk
# T1 construct: 34; 34 cannot be excluded; also called 21; β-lactamase of M.abscessus
# [2] = target: T1, antigenic protein: class A β-lactamase …; assay: cell-based or functional assay
# [3] = target: T2, OXA-48 from Klebsiella pneumoniae, expressed in the periplasm of E. coli BL21(DE3) (Klebsiella pneumoniae, UniProt Q6XEC0 23-265, limits assumed); assay: nitrocefin assay on E. coli BL21(DE3) cells with the β-lactamase in the periplasm
# T2 construct: Expressed from pET26b(+) with a pelB export signal
# [4] = target: T3, KPC-2 from Klebsiella pneumoniae, expressed in the periplasm of E. coli BL21(DE3) (Klebsiella pneumoniae, UniProt Q848S6 25-293); assay: as above
# T3 construct: Expressed from pET26b(+) with a pelB export signal
# [5] = target: T4, VIM-2 from Pseudomonas aeruginosa, expressed in the periplasm of E. coli BL21(DE3) (Pseudomonas aeruginosa); assay: as above
# [6] = target: T2, OXA-48 from Klebsiella pneumoniae, …; assay: cell-based or functional assay
# [7] = target: T3, KPC-2 from Klebsiella pneumoniae, …; assay: cell-based or functional assay
# [8] = target: T4, VIM-2 from Pseudomonas aeruginosa, …; assay: cell-based or functional assay
Binder,Ki [1] [µM],"Km (µM), with antibody [2] [µM]","Vmax (µM/min), with antibody [2] [µM/min]",Ki [3] [µM],Ki [4] [µM],Ki [5] [µM],further results
B1,4.9,53.3,0.26,,,,
B2,3.8,57.3,0.23,30.8,0.12,68.9,"Km(µM), with B5 [6]: 2.26 µM; Vmax(µM/min), with B5 [6]: 0.061 µM/min; Km(µM), with B5 [7]: 2.19 µM; Vmax(µM/min), with B5 [7]: 0.5 µM/min; Km(µM), with B5 [8]: 0.97 µM; Vmax(µM/min), with B5 [8]: 0.0084 µM/min"
B3,2.4,64.4,0.25,10.5,0.06,2.9,"Km(µM), with B2 [6]: 6.62 µM; Vmax(µM/min), with B2 [6]: 0.059 µM/min; Km(µM), with B2 [7]: 121 µM; Vmax(µM/min), with B2 [7]: 0.7 µM/min; Km(µM), with B2 [8]: 39.6 µM; Vmax(µM/min), with B2 [8]: 0.017 µM/min"
B4,15.6,42.6,0.26,,,,
B5,5.2,45.6,0.28,,,,
B6,2.7,51.9,0.34,,,,
